Test [1] has as its target human Axl ECD-His protein (human) (UniProt P30530). Kind of test: SPR (BIAcore-3000): IgG captured by anti-human IgG, human Axl ECD-His injected. For orientation: SPR reads the build-up and loss of mass on a sensor chip optically.
For another test, the target named is T1, human Tyro3-Fc (human, UniProt Q06418 41-428).
T1 construct: not shown: Fc part not described
T1 sequence (looked up): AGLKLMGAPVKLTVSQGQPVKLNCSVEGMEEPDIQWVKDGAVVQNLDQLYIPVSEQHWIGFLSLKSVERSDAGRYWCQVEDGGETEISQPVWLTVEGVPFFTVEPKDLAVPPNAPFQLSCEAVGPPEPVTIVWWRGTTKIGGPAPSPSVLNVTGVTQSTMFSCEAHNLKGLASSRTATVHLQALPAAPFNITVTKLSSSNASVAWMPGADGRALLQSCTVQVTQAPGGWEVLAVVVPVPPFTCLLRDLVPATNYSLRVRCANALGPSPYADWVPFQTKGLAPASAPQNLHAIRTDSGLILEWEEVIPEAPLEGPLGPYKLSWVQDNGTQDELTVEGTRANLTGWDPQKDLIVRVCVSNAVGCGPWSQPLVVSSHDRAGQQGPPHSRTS
Kind of test: ELISA; receptor-Fc captured on anti-human IgG Fc coated plate. The protocol:
(§1) Plates were coated with anti-human IgG Fc, and then incubated with human Axl, Mer, Tyro3 Fcs, mouse or cynomolgus AxlFcs. […] FIG. 7D: ELISA. Plates were coated with anti-human IgG Fc and incubated with human Axl-Fc. […] FIG. 7E: FACS. […] A549 cells were incubated with 1 μg/mlYW327.6S2 for indicated time, and cell surface Axl expression was determined by FACS (upper panel), and total protein expression by Western Blotting analysis (lower panel). […] Phosphorylated Axl was measured by ELISA (upper panel), and phosphorylated Akt by Western Blotting analysis (lower panel). […] Cell viability was measured by CellTiter Glo assay.
(§2) ELISA assays were performed as follows: goat anti-human IgG Fc coated plates were blocking with 0.5% BSA, PBS, 0.05% Tween 20 (PBST). For cross reaction assay, coated plates were incubated with human Axl.Fc, mouse Axl.Fc or human Mer.Fc, Tyro-3.Fc for 1 hr at room temperature, washed four times in PBST, incubated with anti-Axl mAbs and HRP-conjugated anti-mouse Ig. […] Plates were washed four times in PBST, incubated with biotinylated anti-mGas6 and strepavidin-HRP. Secreted Ang-2 and DKK3 was measured using R&D ELISA kit, according to the manufacturer's instruction.
On the technique in general: ELISA stands for enzyme-linked immunosorbent assay.

The target of the next test is T2, human Mer-Fc (human, UniProt Q12866 26-499).
T2 construct: not shown: Fc part not described
T2 sequence (looked up): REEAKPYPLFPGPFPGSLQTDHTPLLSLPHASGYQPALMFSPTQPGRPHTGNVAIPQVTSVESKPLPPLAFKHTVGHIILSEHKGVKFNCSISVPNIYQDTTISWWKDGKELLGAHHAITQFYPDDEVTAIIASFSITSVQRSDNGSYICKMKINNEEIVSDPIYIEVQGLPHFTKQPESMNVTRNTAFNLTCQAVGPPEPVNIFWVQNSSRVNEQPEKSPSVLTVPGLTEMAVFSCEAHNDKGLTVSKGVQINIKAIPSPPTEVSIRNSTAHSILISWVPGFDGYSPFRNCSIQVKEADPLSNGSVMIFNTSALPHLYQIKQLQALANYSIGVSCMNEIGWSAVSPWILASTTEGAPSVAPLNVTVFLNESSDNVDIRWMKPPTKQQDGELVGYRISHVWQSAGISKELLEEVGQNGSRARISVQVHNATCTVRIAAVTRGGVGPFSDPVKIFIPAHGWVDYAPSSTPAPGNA
The description is as above. The protocol: as §1, §2

In test [2] the target is human Axl on the cell surface (HUVEC, A549, H1299, Baf3Axl cells) (human, UniProt P30530 26-894). The experiment in a line: FACS on HUVEC; cells treated with antibody, then Gas6; blocked ligand Gas6 detected with biotinylated anti-Gas6 and streptavidin-PE.
The target in another test is human Axl-Fc (human) (UniProt P30530). Kind of test: competition ELISA; human Axl-Fc captured on anti-human IgG Fc plate, blocked ligand Gas6 detected with biotinylated anti-Gas6 and streptavidin-HRP.
The target in test [3] is T3, murine Axl ECD-Fc fusion protein (murine; human, UniProt Q00993 19-445).
T3 construct: extracellular domain; also called murine Axl ECD human IgG fusion protein; mouse Axl.Fc; not shown: human IgG Fc
The experiment in a line: SPR (BIAcore-3000): murine Axl ECD-Fc captured by anti-human IgG, anti-Axl Fab injected. How it is done:
Association rates (kₒₙ) and dissociation rates (koff) were calculated using a simple one-to-one Langmuir binding model (BIAcore Evaluation Software version 3.2).

The results in this text go back to US20130243753A1 (Genentech, published 2013).

Sequence of human Axl-Fc (human) (P30530 other isoform, or with tags, fused parts or gaps, form in doubt): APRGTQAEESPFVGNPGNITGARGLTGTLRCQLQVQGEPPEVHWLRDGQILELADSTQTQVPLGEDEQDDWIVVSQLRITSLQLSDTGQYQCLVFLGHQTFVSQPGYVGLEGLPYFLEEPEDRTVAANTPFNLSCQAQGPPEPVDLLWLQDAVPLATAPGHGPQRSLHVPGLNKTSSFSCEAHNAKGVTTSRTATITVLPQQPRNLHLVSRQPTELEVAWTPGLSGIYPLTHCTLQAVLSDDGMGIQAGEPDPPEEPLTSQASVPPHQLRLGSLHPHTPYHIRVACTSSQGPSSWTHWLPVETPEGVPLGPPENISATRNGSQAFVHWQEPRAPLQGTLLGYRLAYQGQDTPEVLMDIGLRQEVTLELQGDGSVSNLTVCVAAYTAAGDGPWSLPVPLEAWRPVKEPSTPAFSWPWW
T3 sequence (Q00993 19-445): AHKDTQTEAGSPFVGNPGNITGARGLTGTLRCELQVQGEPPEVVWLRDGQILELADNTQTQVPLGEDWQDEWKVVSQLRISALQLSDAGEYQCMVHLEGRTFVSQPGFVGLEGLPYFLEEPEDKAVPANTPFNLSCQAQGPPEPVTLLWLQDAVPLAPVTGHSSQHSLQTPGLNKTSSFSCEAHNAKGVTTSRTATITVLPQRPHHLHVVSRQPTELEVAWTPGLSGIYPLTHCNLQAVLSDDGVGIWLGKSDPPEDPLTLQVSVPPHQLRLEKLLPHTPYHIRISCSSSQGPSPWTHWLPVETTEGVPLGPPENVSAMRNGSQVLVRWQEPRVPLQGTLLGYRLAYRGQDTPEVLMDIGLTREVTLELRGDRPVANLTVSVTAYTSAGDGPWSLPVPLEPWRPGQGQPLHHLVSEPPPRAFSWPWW
Sequence of human Axl on the cell surface (HUVEC, A549, H1299, Baf3Axl cells) (P30530 other isoform, or with tags, fused parts or gaps limits assumed): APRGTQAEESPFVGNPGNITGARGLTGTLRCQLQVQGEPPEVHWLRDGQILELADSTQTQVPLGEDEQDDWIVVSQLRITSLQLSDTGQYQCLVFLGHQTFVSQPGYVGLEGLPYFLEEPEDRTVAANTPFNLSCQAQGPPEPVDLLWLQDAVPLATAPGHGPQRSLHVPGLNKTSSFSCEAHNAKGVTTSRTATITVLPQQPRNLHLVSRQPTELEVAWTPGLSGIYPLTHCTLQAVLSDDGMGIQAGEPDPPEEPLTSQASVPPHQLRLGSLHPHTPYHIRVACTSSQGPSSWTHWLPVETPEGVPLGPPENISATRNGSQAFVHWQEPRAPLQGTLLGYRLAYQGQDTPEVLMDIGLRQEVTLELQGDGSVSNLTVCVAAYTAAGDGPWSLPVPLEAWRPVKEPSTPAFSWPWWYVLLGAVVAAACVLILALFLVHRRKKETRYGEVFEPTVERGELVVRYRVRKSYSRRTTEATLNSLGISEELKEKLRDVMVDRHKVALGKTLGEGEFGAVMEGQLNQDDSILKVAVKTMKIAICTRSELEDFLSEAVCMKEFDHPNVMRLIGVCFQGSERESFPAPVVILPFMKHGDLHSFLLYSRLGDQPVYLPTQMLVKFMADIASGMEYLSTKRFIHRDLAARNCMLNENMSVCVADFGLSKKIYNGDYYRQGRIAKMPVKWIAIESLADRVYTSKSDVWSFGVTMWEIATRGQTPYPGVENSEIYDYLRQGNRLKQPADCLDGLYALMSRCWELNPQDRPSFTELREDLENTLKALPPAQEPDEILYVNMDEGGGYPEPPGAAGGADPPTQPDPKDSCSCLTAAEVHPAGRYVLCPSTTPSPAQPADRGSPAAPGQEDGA

B1: Affinity matured Axl mAb YW327.6S2 (full-length human IgG) (antibody, V domains shown)
VH: EVQLVESGGGLVQPGGSLRLSCAASGFSLSGSWIHWVRQAPGKGLEWVGWINPYRGYAYYADSVKGRFTISADTSKNTAYLQMNSLRAEDTAVYYCAREYSGWGGSSVGYAMDYWGQGTLVTVSS
VL: DIQMTQSPSSLSASVGDRVTITCRASQDVSTAVAWYQQKPGKAPKLLIYSASFLYSGVPSRFSGSGSGTDFTLTISSLQPEDFATYYCQQSYTTPPTFGQGTKVEIK
notes: No sentence ties these to this name, so they are not used; also called YW327.652
Take B1: the Kd (commonly a measure of binding affinity in units of concentration) in test [1] was 1 nM. For the same molecule, the binding result with human Tyro3-Fc and in the test with human Mer-Fc was “no binding (tested: concentration not shown)” in each case. Further, the “IC50 (read off the curve)” value was ~0.1 µg/mL in test [2] and 0.02 µg/mL with human Axl-Fc (human).

B2: YW327.6S2 Fab fragment (Fab, V domains shown)
VH: B1 VH
VL: B1 VL
notes: The result sentence names only the mAb; also called anti-Axl Fab fragment; YW327.652
In test [3], B2 had a Kd of 0.545 nM.
